Tested on: colon cancer cell line (CT26) tumor
Assay: Nanostring Immune profiling of CT26 tumor tissue
Assay type: in vivo, BALB/c mice
Conditions: 25 mg/kg i.p., tumor RNA, vs control
Experimental: In order to identify changes in expression of immune cell- and tumor microenvironment-related markers when solid cancer models are administered the anti-CD300c monoclonal antibody (CL7) produced in Example 1, a colon cancer cell line (CT26) at 2×10^5 cells was transplanted by subcutaneous injection into 8-week-old BALB/c mice to prepare syngeneic mouse tumor models. Animal breeding and experiments were all conducted in a specific pathogen free (SPF) facility. In addition, 12 days after transplantation of the colon cancer cell line, the mice with a tumor size of 50 mm^3 to 100 mm^3 were separately administered the anti-CD300c monoclonal antibody, and for a control group, the mice were injected with the same amount of phosphate buffered saline (PBS). The mice were intraperitoneally injected with 25 mg/kg twice a week for two weeks over a total of 4 times. On day 25 after the injection, the mice were euthanized, and the tumor tissue was prepared. RNA was extracted and purified therefrom, and changes in dendritic cell markers, macrophage markers, tumor microenvironment (TME) markers, Th1 response markers, or Th2 response markers were identified through Nanostring Immune profiling.
On the basis of the Nanostring Immune profiling results obtained in Example 2.1, it was identified which immune checkpoint markers show a significant difference in expression compared with the control group when syngeneic mouse tumor models are administered the anti-CD300c monoclonal antibody.

B1: CL7: anti-CD300c monoclonal antibody, VH3VL1 phage library, VH SEQ ID 327, VL SEQ ID 328 (antibody, V domains shown)
VH: EVQLLESGGGLVQPGGSLRLSCAASGFTFSRYAMSWVRQAPGKGLEWVSAISGSGGSTYYADSVKGRFTISRDNSKNTLYLQMNSLRAEDTAVYYCARSSQGIFDIWGQGTLVTVSS
VL: QSVLTQPPSASGTPGQRVTISCSGNNIGTRRVHWYQQLPDTAPKLLIYSKNNRPSGVPDRFSGSKSGTSASLAISGLRSEDEADYYCAAWDDSLSGPVFGGGTKLTVL
modifications: CL7 Heavy Chain Variable Region; CL7 Light Chain Variable Region
With B1 the “expression of M1 macrophage markers CCR7, CD80” value was “significantly increase”, the “expression of Th1 response markers Tbx21, Stat1, Stat4, Ifn-g, Cxcr3” value was “increase” and the “expression of agonistic immune checkpoints ICOS, OX40, Gitr, Cd27, Cd28” value was “increases”. For the same molecule, the “expression of dendritic cell markers Bst2, CCL8, Xcl1” value was “significantly increase”, the “expression of inhibitory immune checkpoints PD-1, CTLA-4, Lag3” value was “increases” and the “expression of tumor microenvironment markers vegfa, pdgfrb, Col4a1, Hif1a” value was “reduction”.
